In publication PMC4299599, “Quantification of cytosolic interactions identifies Ede1 oligomers as key organizers of endocytosis” (Molecular Systems Biology, 2014):

T1: Pan1 (S. cerevisiae, UniProt P32521 1-1480)
T1 construct: Pan1, S. cerevisiae; also called Pan1-1myeGFP; Pan1-3mCherry; source: chromosomally tagged at the endogenous locus, in the cytoplasm of living S. cerevisiae cells
T1 sequence (looked up): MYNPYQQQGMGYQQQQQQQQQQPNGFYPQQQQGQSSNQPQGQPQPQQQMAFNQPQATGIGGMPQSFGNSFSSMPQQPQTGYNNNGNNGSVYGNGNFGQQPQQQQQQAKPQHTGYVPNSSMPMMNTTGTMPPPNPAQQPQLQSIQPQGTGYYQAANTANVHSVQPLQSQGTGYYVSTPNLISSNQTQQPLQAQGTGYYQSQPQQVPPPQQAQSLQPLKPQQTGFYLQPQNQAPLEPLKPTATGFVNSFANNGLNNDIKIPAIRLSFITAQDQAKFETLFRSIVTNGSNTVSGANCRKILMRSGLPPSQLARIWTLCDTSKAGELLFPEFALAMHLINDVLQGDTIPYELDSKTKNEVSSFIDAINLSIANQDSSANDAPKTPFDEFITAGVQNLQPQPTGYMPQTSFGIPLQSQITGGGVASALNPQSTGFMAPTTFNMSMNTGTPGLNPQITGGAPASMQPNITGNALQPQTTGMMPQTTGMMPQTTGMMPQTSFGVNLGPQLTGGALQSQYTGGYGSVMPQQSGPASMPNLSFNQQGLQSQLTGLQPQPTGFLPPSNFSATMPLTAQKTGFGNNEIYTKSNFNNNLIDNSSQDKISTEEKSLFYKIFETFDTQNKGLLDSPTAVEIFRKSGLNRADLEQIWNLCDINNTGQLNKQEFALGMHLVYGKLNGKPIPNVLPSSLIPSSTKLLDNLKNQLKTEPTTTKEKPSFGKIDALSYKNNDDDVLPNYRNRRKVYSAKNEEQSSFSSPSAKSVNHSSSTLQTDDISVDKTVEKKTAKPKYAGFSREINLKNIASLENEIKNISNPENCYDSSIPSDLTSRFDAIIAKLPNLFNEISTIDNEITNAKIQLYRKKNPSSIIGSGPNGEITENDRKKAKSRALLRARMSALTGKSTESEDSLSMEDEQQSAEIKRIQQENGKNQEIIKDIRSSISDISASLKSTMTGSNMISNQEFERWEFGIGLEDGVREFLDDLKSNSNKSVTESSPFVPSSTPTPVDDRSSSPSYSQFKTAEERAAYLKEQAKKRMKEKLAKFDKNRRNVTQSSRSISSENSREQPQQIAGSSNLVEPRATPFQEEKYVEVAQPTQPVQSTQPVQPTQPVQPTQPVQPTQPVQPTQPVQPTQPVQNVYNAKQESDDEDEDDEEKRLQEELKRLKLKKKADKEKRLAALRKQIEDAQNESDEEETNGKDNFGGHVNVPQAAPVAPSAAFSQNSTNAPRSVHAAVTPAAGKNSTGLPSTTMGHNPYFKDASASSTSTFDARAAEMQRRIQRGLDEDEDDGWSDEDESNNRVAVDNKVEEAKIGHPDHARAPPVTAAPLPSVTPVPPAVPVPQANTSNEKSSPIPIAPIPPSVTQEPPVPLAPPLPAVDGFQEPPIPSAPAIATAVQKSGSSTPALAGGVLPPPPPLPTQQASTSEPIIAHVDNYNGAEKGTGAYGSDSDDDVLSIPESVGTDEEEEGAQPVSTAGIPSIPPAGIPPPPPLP


Assays:
[1] = molecular target: the molecule itself; experiment: fluorescence cross-correlation spectroscopy (FCCS); self-interaction: living diploid yeast cells with one allele fused to (3)myeGFP and one to (3)mCherry, cytoplasm; apparent (effective) KD, to be taken as the upper limit since complexes of one colour are not seen
[2] = molecular target: the molecule itself; experiment: FCS molecular brightness (counts per particle per second); living yeast cells, cytoplasm; brightness of GFP-tagged particles compared with 3myeGFP and Ent2-3myeGFP (monomers) or with wild-type Ede1; average of all particles
[3] = molecular target: the molecule itself; experiment: fluorescence cross-correlation spectroscopy (FCCS); in the cytoplasm of living yeast cells; first-named protein green (3myeGFP or 1myeGFP; eGFP for Don1), second red (3mCherry); self-interaction in diploid strains with one allele of each colour; apparent or effective KD (Kdeff) from single-cell measurements; only Kdeff values < 1000 nM are shown; values for self-interactions are upper limits
Pan1 = molecular target: T1, Pan1; experiment: as above; details: partners not purified

| Kd (Pan1) [nM] | Binder | Kd [1] [nM] | molecular brightness per particle relative to 3myeGFP [2] [fold] | Kd [3] [nM] |
| --- | --- | --- | --- | --- |
| – | ede1Δ591–1381 (myeGFP / mCherry fusions) (domain or fragment, S. cerevisiae, UniProt P34216 1-590, looked up, 1myeGFP fusion for FCS; diploid with one myeGFP and one mCherry allele for FCCS; Each copy carries one tag; also called ede1^Δ591–1391; source: S. cerevisiae, endogenously expressed truncation mutant, in living cells; not shown: myeGFP, C-terminal, kept; mCherry, C-terminal, kept) MASITFRTPLSSQEQAFYNQKFHQLDTEDLGVVTGEAVRPLFASSGLPGQLLSQVWATVDIDNKGFLNLNEFSAALRMIAQLQNAPNQPISAALYESTPTQLASFSINQNPAPMQSGSATGNTNNTDIPALSSNDIAKFSQLFDRTAKGAQTVAGDKAKDIFLKARLPNQTLGEIWALCDRDASGVLDKSEFIMAMYLIQLCMSHHPSMNTPPAVLPTQLWDSIRLEPVVVNQPNRTTPLSANSTGVSSLTRHSTISRLSTGAFSNAASDWSLSFEKKQQFDAIFDSLDKQHAGSLSSAVLVPFFLSSRLNQETLATIWDLADIHNNAEFTKLEFAIAMFLIQKKNAGVELPDVIPNELLQSPALGLYPPNPLPQQQSAPQIAIPSRASKPSLQDMPHQVSAPAVNTQPTVPQVLPQNSNNGSLNDLLALNPSFSSPSPTKAQTVVQNNTNNSFSYDNNNGQATLQQQQPQQPPPLTHSSSGLKKFTPTSNFGQSIIKEEPEEQEQLRESSDTFSAQPPPVPKHASSPVKRTASTTLPQVPNFSVFSMPAGAATSAATGAAVGAAVGAAALGASAFSRSSNNAFKNQDLF | > 1000 | – | – |
| – | Ede1 (Ede1-3myeGFP / Ede1-3mCherry) (natural protein, S. cerevisiae, UniProt P34216 1-1381, looked up, Ede1, S. cerevisiae, homolog of mammalian Eps15; expressed from its own locus; also called wild-type Ede1; full-length Ede1; source: S. cerevisiae, chromosomally tagged at the endogenous locus, in living cells; not shown: 3myeGFP, C-terminal, kept; 3mCherry, C-terminal, kept) MASITFRTPLSSQEQAFYNQKFHQLDTEDLGVVTGEAVRPLFASSGLPGQLLSQVWATVDIDNKGFLNLNEFSAALRMIAQLQNAPNQPISAALYESTPTQLASFSINQNPAPMQSGSATGNTNNTDIPALSSNDIAKFSQLFDRTAKGAQTVAGDKAKDIFLKARLPNQTLGEIWALCDRDASGVLDKSEFIMAMYLIQLCMSHHPSMNTPPAVLPTQLWDSIRLEPVVVNQPNRTTPLSANSTGVSSLTRHSTISRLSTGAFSNAASDWSLSFEKKQQFDAIFDSLDKQHAGSLSSAVLVPFFLSSRLNQETLATIWDLADIHNNAEFTKLEFAIAMFLIQKKNAGVELPDVIPNELLQSPALGLYPPNPLPQQQSAPQIAIPSRASKPSLQDMPHQVSAPAVNTQPTVPQVLPQNSNNGSLNDLLALNPSFSSPSPTKAQTVVQNNTNNSFSYDNNNGQATLQQQQPQQPPPLTHSSSGLKKFTPTSNFGQSIIKEEPEEQEQLRESSDTFSAQPPPVPKHASSPVKRTASTTLPQVPNFSVFSMPAGAATSAATGAAVGAAVGAAALGASAFSRSSNNAFKNQDLFADGEASAQLSNATTEMANLSNQVNSLSKQASITNDKKSRATQELKRVTEMKNSIQIKLNNLRSTHDQNVKQTEQLEAQVLQVNKENETLAQQLAVSEANYHAAESKLNELTTDLQESQTKNAELKEQITNLNSMTASLQSQLNEKQQQVKQERSMVDVNSKQLELNQVTVANLQKEIDGLGEKISVYLTKQKELNDYQKTVEEQHAQLQAKYQDLSNKDTDLTDREKQLEERNRQIEEQENLYHQHVSKLQEMFDDLSQRKASFEKADQELKERNIEYANNVRELSERQMNLAMGQLPEDAKDIIAKSASNTDTTTKEATSRGNVHEDTVSKFVETTVENSNLNVNRVKDDEEKTERTESDVFDRDVPTLGSQSDSENANTNNGTQSGNETANPNLTETLSDRFDGDLNEYGIPRSQSLTSSVANNAPQSVRDDVELPETLEERDTINNTANRDNTGNLSHIPGEWEATPATASTDVLSNETTEVIEDGSTTKRANSNEDGESVSSIQESPKISAQPKAKTINEEFPPIQELHIDESDSSSSDDDEFEDTREIPSATVKTLQTPYNAQPTSSLEIHTEQVIKYPAPGTSPSHNEGNSKKASTNSILPVKDEFDDEFAGLEQAAVEEDNGADSESEFENVANAGSMEQFETIDHKDLDDELQMNAFTGTLTSSSNPTIPKPQVQQQSTSDPAQVSNDEWDEIFAGFGNSKAEPTKVATPSIPQQPIPLKNDPIVDASLSKGPIVNRGVATTPKSLAVEELSGMGFTEEEAHNALEKCNWDLEAATNFLLDSA | 127 | ~2.5 | – |
| – | Bbc1 (natural protein, S. cerevisiae, UniProt P47068 1-1157, looked up, Bbc1, S. cerevisiae; also called Bbc1-3myeGFP; Bbc1-3mCherry; source: chromosomally tagged at the endogenous locus, in the cytoplasm of living S. cerevisiae cells) MSEPEVPFKVVAQFPYKSDYEDDLNFEKDQEIIVTSVEDAEWYFGEYQDSNGDVIEGIFPKSFVAVQGSEVGKEAESSPNTGSTEQRTIQPEVEQKDLPEPISPETKKETLSGPVPVPAATVPVPAATVPVPAATAVSAQVQHDSSSGNGERKVPMDSPKLKARLSMFNQDITEQVPLPKSTHLDLENIPVKKTIVADAPKYYVPPGIPTNDTSNLERKKSLKENEKKIVPEPINRAQVESGRIETENDQLKKDLPQMSLKERIALLQEQQRLQAAREEELLRKKAKLEQEHERSAVNKNEPYTETEEAEENEKTEPKPEFTPETEHNEEPQMELLAHKEITKTSREADEGTNDIEKEQFLDEYTKENQKVEESQADEARGENVAEESEIGYGHEDREGDNDEEKEEEDSEENRRAALRERMAKLSGASRFGAPVGFNPFGMASGVGNKPSEEPKKKQHKEKEEEEPEQLQELPRAIPVMPFVDPSSNPFFRKSNLSEKNQPTETKTLDPHATTEHEQKQEHGTHAYHNLAAVDNAHPEYSDHDSDEDTDDHEFEDANDGLRKHSMVEQAFQIGNNESENVNSGEKIYPQEPPISHRTAEVSHDIENSSQNTTGNVLPVSSPQTRVARNGSINSLTKSISGENRRKSINEYHDTVSTNSSALTETAQDISMAAPAAPVLSKVSHPEDKVPPHPVPSAPSAPPVPSAPSVPSAPPVPPAPPALSAPSVPPVPPVPPVSSAPPALSAPSIPPVPPTPPAPPAPPAPLALPKHNEVEEHVKSSAPLPPVSEEYHPMPNTAPPLPRAPPVPPATFEFDSEPTATHSHTAPSPPPHQNVTASTPSMMSTQQRVPTSVLSGAEKESRTLPPHVPSLTNRPVDSFHESDTTPKVASIRRSTTHDVGEISNNVKIEFNAQERWWINKSAPPAISNLKLNFLMEIDDHFISKRLHQKWVVRDFYFLFENYSQLRFSLTFNSTSPEKTVTTLQERFPSPVETQSARILDEYAQRFNAKVVEKSHSLINSHIGAKNFVSQIVSEFKDEVIQPIGARTFGATILSYKPEEGIEQLMKSLQKIKPGDILVIRKAKFEAHKKIGKNEIINVGMDSAAPYSSVVTDYDFTKNKFRVIENHEGKIIQNSYKLSHMKSGKLKVFRIVARGYVGW | – | – | 115 |
| 539 | Sla2 (natural protein, S. cerevisiae, UniProt P33338 1-968, looked up, Sla2, S. cerevisiae; also called Sla2-3myeGFP; Sla2-3mCherry; source: chromosomally tagged at the endogenous locus, in the cytoplasm of living S. cerevisiae cells) MSRIDSDLQKALKKACSVEETAPKRKHVRACIVYTWDHQSSKAVFTTLKTLPLANDEVQLFKMLIVLHKIIQEGHPSALAEAIRDRDWIRSLGRVHSGGSSYSKLIREYVRYLVLKLDFHAHHRGFNNGTFEYEEYVSLVSVSDPDEGYETILDLMSLQDSLDEFSQIIFASIQSERRNTECKISALIPLIAESYGIYKFITSMLRAMHRQLNDAEGDAALQPLKERYELQHARLFEFYADCSSVKYLTTLVTIPKLPVDAPDVFLINDVDESKEIKFKKREPSVTPARTPARTPTPTPPVVAEPAISPRPVSQRTTSTPTGYLQTMPTGATTGMMIPTATGAANAIFPQATAQMQPDFWANQQAQFANEQNRLEQERVQQLQQQQAQQELFQQQLQKAQQDMMNMQLQQQNQHQNDLIALTNQYEKDQALLQQYDQRVQQLESEITTMDSTASKQLANKDEQLTALQDQLDVWERKYESLAKLYSQLRQEHLNLLPRFKKLQLKVNSAQESIQKKEQLEHKLKQKDLQMAELVKDRDRARLELERSINNAEADSAAATAAAETMTQDKMNPILDAILESGINTIQESVYNLDSPLSWSGPLTPPTFLLSLLESTSENATEFATSFNNLIVDGLAHGDQTEVIHCVSDFSTSMATLVTNSKAYAVTTLPQEQSDQILTLVKRCAREAQYFFEDLMSENLNQVGDEEKTDIVINANVDMQEKLQELSLAIEPLLNIQSVKSNKETNPHSELVATADKIVKSSEHLRVDVPKPLLSLALMIIDAVVALVKAAIQCQNEIATTTSIPLNQFYLKNSRWTEGLISAAKAVAGATNVLITTASKLITSEDNENTSPEQFIVASKEVAASTIQLVAASRVKTSIHSKAQDKLEHCSKDVTDACRSLGNHVMGMIEDDHSTSQQQQPLDFTSEHTLKTAEMEQQVEILKLEQSLSNARKRLGEIRRHAYYNQDDD | – | – | 133 |
